These results are taken from patent CN115925945A (GUANGDONG FEIPENG PHARMACEUTICAL CO LTD, dated 2023).

The test addresses T1, 人TIGIT (全长, 表达于CHO工程细胞CHO-hTIGIT) (human, UniProt Q495A1 22-244).
T1 construct: whole, on cells
T1 sequence (looked up): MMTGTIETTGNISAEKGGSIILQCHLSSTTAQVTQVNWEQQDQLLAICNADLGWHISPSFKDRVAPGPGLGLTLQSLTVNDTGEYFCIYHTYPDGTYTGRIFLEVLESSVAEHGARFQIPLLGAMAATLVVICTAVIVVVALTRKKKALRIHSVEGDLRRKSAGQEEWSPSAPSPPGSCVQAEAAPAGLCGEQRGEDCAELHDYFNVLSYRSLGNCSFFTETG
As to the kind of experiment: in vitro binding activity after stress tests (acid, base, freeze-thaw, high temperature).

B1: 抗TIGIT人源化抗体15H10L3 (R0774), hIgG1亚型 (antibody, V domains shown)
VH: QVQLVQSGAEVKKPGSSVKVSCKASGYSFTSYWMNWVRQAPGQGLEWIGMIRPSDSETRLNQMFKDRVTITVDKSTSTAYMELSSLRSEDTAVYYCAGIHDYGHGAYWGQGTLVTVSS
VL: DIQMTQSPSSLSASVGDRVTITCRASENIYSNLAWYQQKPGKSPKLLVYAASHLPDGVPSRFSGSGSGTDYSLTISSLQPEDFATYYCQHFWGTPRTFGQGTKLEIKR
notes: Full-length chains printed for R0774 (hIgG1 with K214R/D356E/L358M, human kappa); Humanized from TIGIT-5 murine mAb; also called 15H10L3-hIgG1
Take B1: the binding result is “binds”.
